Positions count from the first letter of the chain named. Read-outs that look alike come from different tables or passages of the source.
T1: extracellular domain of human BCMA (human, UniProt Q02223 1-54)
T1 construct: amine-linked to Octet AR2G tips; also called hsBCMA; BCMA (human)
T1 sequence: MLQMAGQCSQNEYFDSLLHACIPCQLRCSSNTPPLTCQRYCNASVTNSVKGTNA

B1: AB200-R1a-Fab_Vk23 (Fab, V domains shown)
VH: QVQLVQSGAEVKKPGSSVKVSCKASGGTFSNYWMHWVRQAPGQGLEWMGATYRGHSDTYYNQKFKGRVTITADKSTSTAYMELSSLRSEDTAVYYCARGAIYHGYDVLDNWGQGTLVTVSS
VL: DIQMTQSPSSLSASVGDRVTITCSASQDISNYLNWYQQKPGKAPKLLIYYTSNIHSGVPSRFSGSGSGTDFTLTISSLQPEDFATYYCQQYKKMPWTFGQGTKLEIKR
B2: AB200-R1a-Fab_Vk24 (Fab, V domains shown)
VH: B1 VH
VL: B1 VL with Q27N, D28S, T51A, I54L, K92R, M94L
B3: AB200-R1a-Fab_Vk26 (Fab, V domains shown)
VH: B1 VH
VL: B1 VL with T51S, N53S, I54L, S56I, K92R, M94L
B4: AB200-R1a-Fab_Vk27 (Fab, V domains shown)
VH: B1 VH
VL: B1 VL with S30T, Y50F, I54L, K92Y, M94L
B5: AB200-R1a-Fab_Vk28 (Fab, V domains shown)
VH: B1 VH
VL: B1 VL with Y32F, I54M, K92R, K93S, M94L
B6: AB200-R1a-Fab_Vk29 (Fab, V domains shown)
VH: B1 VH
VL: B1 VL with Q27H, I29V, I54L, K92R, K93R, M94L
B7: AB200-R1a-Fab_Vk31 (Fab, V domains shown)
VH: B1 VH
VL: B1 VL with S56I, K92R, M94L, T97S
B8: AB200-R1a-Fab_Vk32 (Fab, V domains shown)
VH: B1 VH
VL: B1 VL with I29L, N53S, I54L, K92R, M94T
B9: AB200-R1a-Fab_Vk34 (Fab, V domains shown)
VH: B1 VH
VL: B1 VL with Q27H, I54L, Q89H, Q90E, K92R, M94L
B10: AB200-R1a-Fab_Vk36 (Fab, V domains shown)
VH: B1 VH
VL: B1 VL with I29L, I54L, H55Q, K92R, K93R, M94L
B11: AB200-(2Vk31)_R2-CDR1-hs-v3 (Fab, V domains shown)
VH: B1 VH with N31S, W33A, M34I, H35S, G54S, H55Q, F64Y, G66S, I101V, L108I
VL: DIQMTQSPSSLSASVGDRVTITCRASQSISSYLNWYQQKPGKAPKLLIYATSNLQIGVPSRFSGSGSGTDFTLTISSLQPEDFATYYCQQFRRLPWTFGQGTKLEIKR
B12: AB200-(2Vk31)_R2-VH-v2 (Fab, V domains shown)
VH: B1 VH with S30T, M34I, G54S, D57T, Y59N, G66S, I101V, L108I
VL: B11 VL
B13: AB200-(2Vk31)_R2-VH-v5 (Fab, V domains shown)
VH: B1 VH with S30T, M34I, A50G, G54S, Q62E, G66S, Y102F, L108I
VL: B11 VL
B14: AB200-(2Vk31)_R2-VH-v12 (Fab, V domains shown)
VH: B1 VH with F29Y, M34I, G54S, D57T, F64Y, G66S, Y105F, L108I
VL: B11 VL
B15: AB200-(2Vk31)_R2-VH-v17 (Fab, V domains shown)
VH: B1 VH with T28S, M34I, G54S, H55Q, N61A, G66S, Y102F, L108I
VL: B11 VL
B16: AB200-(2Vk31)_R2-VH-v18 (Fab, V domains shown)
VH: B1 VH with T28S, M34I, G54S, N61A, Q62E, G66S, I101V, L108I
VL: B11 VL
B17: AB200-(2Vk31)_R2-VH-v21 (Fab, V domains shown)
VH: B1 VH with M34I, A50G, G54S, N61A, G66S, Y102F, L108I
VL: B11 VL
B18: AB200-(2Vk31)_R2-VH-v25 (Fab, V domains shown)
VH: B1 VH with M34I, G54S, D57T, Y59N, G66S, Y105F, L108I
VL: B11 VL
B19: AB200-(2Vk31)_R2-VH-v29 (Fab, V domains shown)
VH: B1 VH with M34I, G54S, D57T, Q62E, G66S, Y105F, L108I
VL: B11 VL
B20: AB200-(2Vk31)_R2-VH-v33 (Fab, V domains shown)
VH: B1 VH with M34I, G54S, Y59N, Q62E, G66S, L108I, D109E
VL: B11 VL
B21: AB200-(2Vk31)_R2-VH-v34 (Fab, V domains shown)
VH: B1 VH with M34I, G54S, H55Q, N61A, G66S, L108I, D109E
VL: B11 VL
B22: AB200-(2Vk31)_R2-VH-v42 (Fab, V domains shown)
VH: B1 VH with S30T, M34I, A50G, G54I, F64Y, G66S, Y102F, L108I
VL: B11 VL
B23: AB200-(2Vk31)_R2-VH-v47 (Fab, V domains shown)
VH: B1 VH with F29Y, M34I, G54I, D57T, Q62E, G66S, Y102F, L108I
VL: B11 VL
B24: AB200-(2Vk31)_R2-VH-v50 (Fab, V domains shown)
VH: B1 VH with F29Y, M34I, A50G, G54I, Y59N, G66S, L108I, D109E
VL: B11 VL
B25: AB200-(2Vk31)_R2-VH-v57 (Fab, V domains shown)
VH: B1 VH with M34I, A50G, G54I, D57T, G66S, K74E, I101V, L108I
VL: B11 VL
B26: AB200-(2Vk31)_R2-VH-v66 (Fab, V domains shown)
VH: B1 VH with M34I, G54I, D57T, F64Y, G66S, Y102F, L108I
VL: B11 VL
B27: AB200-(2Vk31)_R2-VH-v73 (Fab, V domains shown)
VH: B1 VH with M34I, G54I, N61A, F64Y, G66S, I101V, L108I
VL: B11 VL
B28: AB200-R1a-Fab(hCDR1) (Fab, V domains shown)
VH: B1 VH
VL: B11 VL with A50Y, Q55H, I56S, F91Y, R93K
B29: AB200-R1a-Fab(hCDR3) (Fab, V domains shown)
VH: B1 VH
VL: B1 VL with I54L, Y91S, K92Y, K93S, M94T
B30: AB200-R1a-Fab_Vk2 (Fab, V domains shown)
VH: B1 VH
VL: B1 VL with D28E, I29V, I54L, Q90E, K92R, M94L
B31: AB200-R1a-Fab_Vk8 (Fab, V domains shown)
VH: B1 VH
VL: B1 VL with I54L, H55Q, Q89H, Y91S, K92R, M94L
B32: AB200-R1a-Fab_Vk9 (Fab, V domains shown)
VH: B1 VH
VL: B1 VL with D28E, Y50A, I54L, K92R, M94L, T97S
B33: AB200-R1a-Fab_Vk10 (Fab, V domains shown)
VH: B1 VH
VL: B1 VL with D28S, I54L, Y91S, K92R
B34: AB200-R1a-Fab_Vk12 (Fab, V domains shown)
VH: B1 VH
VL: B1 VL with T51A, S52T, I54L, K92R, K93R, M94L
B35: AB200-R1a-Fab_Vk15 (Fab, V domains shown)
VH: B1 VH
VL: B1 VL with Q27H, D28E, N53S, I54L, K92R, M94L
B36: AB200-R1a-Fab_Vk16 (Fab, V domains shown)
VH: B1 VH
VL: B1 VL with S30T, Y50A, I54L, Q90E, K92R, M94L
B37: AB200-R1a-Fab_Vk25 (Fab, V domains shown)
VH: B1 VH
VL: B1 VL with Y50A, T51A, I54L, K92R, M94I
B38: AB200-R1a-Fab_Vk30 (Fab, V domains shown)
VH: B1 VH
VL: B1 VL with S24T, D28S, L33I, I54L, K92R, M94L
B39: AB200-R1a-Fab_Vk33 (Fab, V domains shown)
VH: B1 VH
VL: B1 VL with N31S, Y50F, I54L, Y91S, K92R, M94L
B40: AB200-R1a-Fab_Vk35 (Fab, V domains shown)
VH: B1 VH
VL: B1 VL with I29L, I54L, M94I

Assays:
Experiment in all cases: Octet BLI; Fab 200 nM
[1] = biological target: T1, extracellular domain of human BCMA
[2] = biological target: T2, extracellular domain of rhesus monkey BCMA (rhesus monkey, UniProt F7FFA0 1-53)
T2 construct: extracellular domain; also called RhBCMA

[3] = biological target: T1, extracellular domain of human BCMA; remark: listed apart in the source
[4] = biological target: T2, extracellular domain of rhesus monkey …; remark: listed apart in the source

T2 sequence (F7FFA0 entry or part of it): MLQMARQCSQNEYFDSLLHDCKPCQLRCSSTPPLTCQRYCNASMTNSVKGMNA

Binder | Kd [1] | Kd [2] | Kd [3] | Kd [4]
B1 | 16.8 nM | 29.7 nM | – | –
B2 | 5.11 nM | 14.2 nM | – | –
B3 | 5.56 nM | 17.9 nM | – | –
B4 | 6.39 nM | 10.7 nM | – | –
B5 | 4.87 nM | 7.57 nM | – | –
B6 | 1.55 nM | 4.96 nM | – | –
B7 | 2.36 nM | 8.96 nM | – | –
B8 | 11.7 nM | 44.7 nM | – | –
B9 | 26.5 nM | 74.7 nM | – | –
B10 | 1.43 nM | 5.06 nM | – | –
B11 | – | – | 319 nM | 540 nM
B12 | – | – | 25 nM | 55.6 nM
B13 | – | – | 3.65 nM | 10.4 nM
B14 | – | – | 13 nM | 18.4 nM
B15 | – | – | 5.77 nM | 16.9 nM
B16 | – | – | 3.55 nM | 14.9 nM
B17 | – | – | 10.7 nM | 29.7 nM
B18 | – | – | 32.8 nM | 57.3 nM
B19 | – | – | 6.02 nM | 9.34 nM
B20 | – | – | 46 nM | 50.4 nM

Binder | Kd [1] | Kd [2] | Kd [3] | Kd [4]
B21 | – | – | 5.13 nM | 18 nM
B22 | – | – | 4.33 nM | 23.5 nM
B23 | – | – | 17.7 nM | 15.9 nM
B24 | – | – | 90 nM | 196 nM
B25 | – | – | 11.9 nM | 20.8 nM
B26 | – | – | 13.7 nM | 20.8 nM
B27 | – | – | 1.32 nM | 7.72 nM
B28 | 1.58 nM | 5.3 nM | – | –
B29 | 82.8 nM | 113 nM | – | –
B30 | 4.27 nM | 14.9 nM | – | –
B31 | 24.1 nM | 42.1 nM | – | –
B32 | 2.04 nM | 8.03 nM | – | –
B33 | 110 nM | 195 nM | – | –
B34 | 4.89 nM | 16.8 nM | – | –
B35 | 2.93 nM | 9.71 nM | – | –
B36 | 3.18 nM | 12.9 nM | – | –
B37 | 3.44 nM | 13.6 nM | – | –
B38 | 1.56 nM | 4.78 nM | – | –
B39 | 19.5 nM | 37.4 nM | – | –
B40 | 7.3 nM | 18.9 nM | – | –

From patent US20240327535A1 (EISAI R AND D MANAGEMENT, published 2024)
